Measured values published in US20120053225A1 (H LEE MOFFITT CANCER CENTER AND RESEARCH INSTITUTE, published 2012).

B1: endogenous Akt1 of mouse embryo fibroblasts (enzyme, UniProt P31750 1-480, looked up)
chain: MNDVAIVKEGWLHKRGEYIKTWRPRYFLLKNDGTFIGYKERPQDVDQRESPLNNFSVAQCQLMKTERPRPNTFIIRCLQWTTVIERTFHVETPEEREEWATAIQTVADGLKRQEEETMDFRSGSPSDNSGAEEMEVSLAKPKHRVTMNEFEYLKLLGKGTFGKVILVKEKATGRYYAMKILKKEVIVAKDEVAHTLTENRVLQNSRHPFLTALKYSFQTHDRLCFVMEYANGGELFFHLSRERVFSEDRARFYGAEIVSALDYLHSEKNVVYRDLKLENLMLDKDGHIKITDFGLCKEGIKDGATMKTFCGTPEYLAPEVLEDNDYGRAVDWWGLGVVMYEMMCGRLPFYNQDHEKLFELILMEEIRFPRTLGPEAKSLLSGLLKKDPTQRLGGGSEDAKEIMQHRFFANIVWQDVYEKKLSPPFKPQVTSETDTRYFDEEFTAQMITITPPDQDDSMECVDSERRPHFPQFSYSASGTA
notes: Endogenous protein in MEF lysates
B2: GST-Ack1 (kinase, SH3 and CRIB domain), expressed in E. coli (enzyme, UniProt Q07912 110-476, looked up)
chain: GEGPLQSLTCLIGEKDLRLLEKLGDGSFGVVRRGEWDAPSGKTVSVAVKCLKPDVLSQPEAMDDFIREVNAMHSLDHRNLIRLYGVVLTPPMKMVTELAPLGSLLDRLRKHQGHFLLGTLSRYAVQVAEGMGYLESKRFIHRDLAARNLLLATRDLVKIGDFGLMRALPQNDDHYVMQEHRKVPFAWCAPESLKTRTFSHASDTWMFGVTLWEMFTYGQEPWIGLNGSQILHKIDKEGERLPRPEDCPQDIYNVMVQCWAHKPEDRPTFVALRDFLLEAQPTDMRALQDFEEPDKLHIQMNDVITVIEGRAENYWWRGQNTRTLCVGPFPRNVVTSVAGLSAQDISQPLQNSFIHTGHGDSDPRHCW
notes: domain: kinase, SH3 and CRIB domain; also called GST-tagged Ack1; not shown: GST tag

Legend:
[1] = biological target: T1, endogenous Ack1 of mouse embryo fibroblasts (mouse, UniProt O54967 1-1055, limits assumed); test: co-IP with Ack1 antibodies from EGF-treated MEF lysates, immunoblot with pan-AKT antibodies
T1 construct: Endogenous protein immunoprecipitated from MEF lysates with anti-Ack1 antibodies; also called TNK2
T1 sequence (O54967 whole entry): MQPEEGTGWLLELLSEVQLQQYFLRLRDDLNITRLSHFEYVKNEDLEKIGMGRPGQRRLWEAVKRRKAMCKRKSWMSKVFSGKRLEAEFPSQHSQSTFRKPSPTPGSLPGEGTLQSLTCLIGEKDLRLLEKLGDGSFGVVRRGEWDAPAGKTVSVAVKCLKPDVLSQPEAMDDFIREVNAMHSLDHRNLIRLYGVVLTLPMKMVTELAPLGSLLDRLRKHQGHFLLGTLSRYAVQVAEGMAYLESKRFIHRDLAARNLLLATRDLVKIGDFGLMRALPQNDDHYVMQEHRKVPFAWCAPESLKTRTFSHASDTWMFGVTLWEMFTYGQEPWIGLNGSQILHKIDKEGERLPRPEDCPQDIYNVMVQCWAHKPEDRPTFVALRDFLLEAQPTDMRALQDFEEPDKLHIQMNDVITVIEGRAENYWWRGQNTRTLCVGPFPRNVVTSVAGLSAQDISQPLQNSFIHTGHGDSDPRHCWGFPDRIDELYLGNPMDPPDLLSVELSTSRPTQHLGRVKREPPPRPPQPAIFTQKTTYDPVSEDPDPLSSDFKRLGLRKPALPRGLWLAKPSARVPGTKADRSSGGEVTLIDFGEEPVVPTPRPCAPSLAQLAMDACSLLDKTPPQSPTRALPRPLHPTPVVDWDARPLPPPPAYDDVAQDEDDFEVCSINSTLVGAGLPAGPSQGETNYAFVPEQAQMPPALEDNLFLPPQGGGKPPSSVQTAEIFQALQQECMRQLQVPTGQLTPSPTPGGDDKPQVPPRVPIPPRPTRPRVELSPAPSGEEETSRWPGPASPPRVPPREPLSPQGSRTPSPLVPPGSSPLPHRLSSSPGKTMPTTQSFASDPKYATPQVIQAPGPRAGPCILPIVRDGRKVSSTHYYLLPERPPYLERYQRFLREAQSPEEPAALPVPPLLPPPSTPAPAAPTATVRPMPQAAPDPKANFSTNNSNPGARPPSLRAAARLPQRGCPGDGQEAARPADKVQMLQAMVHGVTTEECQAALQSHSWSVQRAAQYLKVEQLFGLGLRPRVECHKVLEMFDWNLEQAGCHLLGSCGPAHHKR
Method: Membrane and cytosolic fractionation was performed using membrane fractionation kit (BioVision, Inc, CA). The nuclear/cytoplasmic fractionation was performed using protocol from Abcam (Abcam, Inc., Cambridge, Mass.). For immunoprecipitations, cells were lysed in receptor lysis buffer (RLB) containing 25 mmol/L Tris (pH 7.5), 500 mmol/L NaCl, 1% Triton X-100, 10% glycerol, phosphatase inhibitors (10 mmol/L NaF, 1 mmol/L Na₂VO₄), and protease inhibitor mix (Hoffmann-La Roche Inc., Switzerland). […] The kinase assay was performed using kit from Calbiochem.

[2] = biological target: T2, HA-tagged AKT Y176F mutant (UniProt P31749 1-480); test: pull-down of purified proteins on GST-Ack1 glutathione beads, immunoblot
T2 construct: also called Y176F mutant of AKT; HA-Y176F; not shown: HA tag

Binder	binding result [1]	binding result [2]
B1	binds	–
B2	–	no binding
